One substance from PMC10453637 can be followed below.

This data set has as its system O=C1CCCCC1. Kind of data set: purified protein. The following applies: apparent, 0.3 mM NADPH, 50 mM sodium phosphate pH 7.7, 25 °C.

As for “Ac CHMO (cyclohexanone monooxygenase) (Acinetobacter johnsonii)”, the Km amounted to 4.09 ± 1.81 µM.

For orientation: Km means the substrate concentration at which the rate is half of its maximum.
